The test system of this series is T1, C[C@@H]1O[C@@H](OC[C@H]2O[C@@H](Oc3c(-c4ccc(O)c(O)c4)oc4cc(O)cc(O)c4c3=O)[C@H](O)[C@@H](O)[C@@H]2O)[C@H](O)[C@H](O)[C@H]1O.
T1 construct: N-terminal His tag, pET28a in E. coli BL21(DE3), Ni-NTA; forward coding primer starts ATGGCCGACGACTATGGC (MADDYG)
Nature of the series: purified protein. Format: biochemical, Carthamus tinctorius. To be noted: range of rutin concentrations; no redox partner or NADPH stated.

As usually defined, the Km is the concentration of substrate that gives half-maximal velocity. Consider “CtCYP82G24 (Carthamus tinctorius var. tinctorius)”, for which the Michaelis-Menten constant (Km) is on record as 5.37 ± 0.123 mM.

Source of the values: PMC6826380, “Overexpression of a Novel Cytochrome P450 Promotes Flavonoid Biosynthesis and Osmotic Stress Tolerance in Transgenic Arabidopsis” (Genes, 2019).
